This assay has as its target Recombinant Borrelia burgdorferi HtrA (HtrABb, BB0104) with intact N-terminal His-tag (Borrelia burgdorferi strain B31A3). Description: SEC. On the technique in general: Size exclusion chromatography separates by hydrodynamic size, large species first.

Usually stoichiometry N stands for a count of units in the complex or per binding partner.

Consider “Recombinant Borrelia burgdorferi HtrA (HtrABb, BB0104) with intact N-terminal His-tag (enzyme)”, for which the stoichiometry N amounted to 3.

The values above are taken from article PMC3641820.
